In article PMC8213733, “Subtype-specific collaborative transcription factor networks are promoted by OCT4 in the progression of prostate cancer” (Nature Communications, 2021):

Molecular target: T1, Flag-AR (human (cDNA of PC cells, said of the …, UniProt P10275 1-920))
T1 construct: androgen receptor, full length in Flag-tagged pcDNA3.0; also called androgen receptor; source: 293T, transfected, cells treated with 10 nM DHT or vehicle, purified (Flag M2 agarose beads, glycine elution)
T1 sequence (looked up): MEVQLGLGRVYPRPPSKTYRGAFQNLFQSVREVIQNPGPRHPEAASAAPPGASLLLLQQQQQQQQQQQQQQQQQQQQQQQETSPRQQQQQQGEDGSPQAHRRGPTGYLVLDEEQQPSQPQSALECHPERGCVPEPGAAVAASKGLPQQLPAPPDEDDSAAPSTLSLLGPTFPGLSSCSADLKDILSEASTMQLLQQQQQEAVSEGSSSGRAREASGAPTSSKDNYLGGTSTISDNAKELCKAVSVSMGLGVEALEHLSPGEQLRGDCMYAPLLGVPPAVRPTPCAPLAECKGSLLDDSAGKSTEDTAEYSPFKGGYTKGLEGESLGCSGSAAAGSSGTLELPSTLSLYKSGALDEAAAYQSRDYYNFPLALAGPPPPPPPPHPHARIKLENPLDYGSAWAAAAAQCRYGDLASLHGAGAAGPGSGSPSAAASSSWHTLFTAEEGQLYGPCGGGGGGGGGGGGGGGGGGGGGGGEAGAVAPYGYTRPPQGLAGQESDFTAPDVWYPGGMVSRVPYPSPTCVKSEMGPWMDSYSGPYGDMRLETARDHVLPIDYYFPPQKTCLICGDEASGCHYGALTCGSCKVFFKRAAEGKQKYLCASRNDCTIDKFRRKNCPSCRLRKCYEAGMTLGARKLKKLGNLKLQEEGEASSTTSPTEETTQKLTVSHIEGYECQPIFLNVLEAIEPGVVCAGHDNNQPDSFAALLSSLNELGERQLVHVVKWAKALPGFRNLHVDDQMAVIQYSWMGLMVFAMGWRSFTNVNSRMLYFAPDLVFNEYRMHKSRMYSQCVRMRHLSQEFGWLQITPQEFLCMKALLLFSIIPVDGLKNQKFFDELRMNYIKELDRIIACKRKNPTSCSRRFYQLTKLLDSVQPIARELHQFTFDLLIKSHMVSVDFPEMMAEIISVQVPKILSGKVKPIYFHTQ
Assay: co-IP; in vitro binding assay: purified proteins in 20 mM Tris-HCl pH 7.5, 150 mM NaCl, 0.1% Triton X-100, 1 mM DTT, 4 °C, 5 h; FOXA1 immunoprecipitated, bound proteins by western blot; with or without ribavirin-phosphate
Settings: both partners purified

- binding result: binds
B1: Flag-FOXA1 (natural protein, UniProt P55317 1-472, looked up)
chain: MLGTVKMEGHETSDWNSYYADTQEAYSSVPVSNMNSGLGSMNSMNTYMTMNTMTTSGNMTPASFNMSYANPGLGAGLSPGAVAGMPGGSAGAMNSMTAAGVTAMGTALSPSGMGAMGAQQAASMNGLGPYAAAMNPCMSPMAYAPSNLGRSRAGGGGDAKTFKRSYPHAKPPYSYISLITMAIQQAPSKMLTLSEIYQWIMDLFPYYRQNQQRWQNSIRHSLSFNDCFVKVARSPDKPGKGSYWTLHPDSGNMFENGCYLRRQKRFKCEKQPGAGGGGGSGSGGSGAKGGPESRKDPSGASNPSADSPLHRGVHGKTGQLEGAPAPGPAASPQTLDHSGATATGGASELKTPASSTAPPISSGPGALASVPASHPAHGLAPHESQLHLKGDPHYSFNHPFSINNLMSSSEQQHKLDFKAYEQALQYSPYGSTLPASLPLGSASVTTRSPIEPSALEPAYYQGVYSRPVLNTS
notes: FOXA1, full length in Flag-tagged pcDNA3.0; source: 293T, transfected, purified (Flag M2 agarose beads, glycine elution)
